Reference: the nanobody polyreactivity screen of Harvey et al. (2022)

Assay: yeast display, Sf9 membrane polyspecificity reagent, FACS + sequencing; frameworks hold sequencing errors
Method in brief: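 Genes from sorted yeast were amplified by colony PCR, read by MiSeq 2 × 250 sequencing and filtered on CDR length. These cells carried a synthetic nanobody library in Saccharomyces cerevisiae BJ5465 and were sorted by FACS into low and high (top ~1%) gates on anti-HA and streptavidin fluorescence. Polyreactivity is labelled according to the gate of origin.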

QVQLVESGGGLVQAGGSLSLSCAASGSTFYSNAMGWYRQAPGKERELVAAISIGGSTYYADSVKGRFTISRDNAKNTVYLQMNSLKPEDTAVYYCAVDYRHSSSWNAGRWEMYYWGQGTQVTVSS
polyreactivity (PSR sort gate): low polyreactivity

QVQLVESGGVLVQAGGSLRLICAASGSTFEFYAMGWYRQEPGKERELVARITWNGGNTYADSVKGRYTISRDNAKNNVYLQMNSLKPEDTSVYYCATDYVVGFYYWGQGTQVTVSS
polyreactivity (PSR sort gate): low polyreactivity

QVQLVESGGGLDQAGGSLRLSCAASGNTFIRNALGWYRQAPGIERELVAAITSGTSTYYADSVKGRFTISRDNAQKTVYLQMNSLKPEDTALYYCAKRRNYWHYYWGQGTQVTVSS
polyreactivity (PSR sort gate): high polyreactivity

QVHLVESGGGLVQAGGSLRLSCAASGGIFYINSMGWYRQAPGKERELVAAITGGASTYYADSVKGRFTISRDNAKNTVYLQMNSLNPEDTAVYYCAARPSSRRVYPAYLYGYWGQGTQVSVSS
polyreactivity (PSR sort gate): high polyreactivity

QVQLVESGGGLVQAGGSLRLSCAASGSTLKYNAMGWYRQAPGKEREFVASITLSACRTYYADSVKGRFTISRDNAKNTVYLQMNSLKPEDTAVYYCAARRYFSYRYDYWGQGTQVTVSS
polyreactivity (PSR sort gate): high polyreactivity

QVQLVESGGGLVQAGGILRLSCAASGSIYSGYAMGWYIQAPAKEREFVAAITSTSGSTYYADSVKVRFTISRDNAKNSVYLQMNSLKPEDTAVYYWAGYRYRYYSYDSWGQGTHVTVSS
polyreactivity (PSR sort gate): high polyreactivity

QVQLVESGGGLLQAGGSLRISCAASGFPYVMGWYRQAPGKARELVATITSGDSTNYADSVKGRFTISRDNAKNTVYLQMNSLKPEDTAVYYCNARYWGRYYKRVRYDYWGQGTKVTVSS
polyreactivity (PSR sort gate): high polyreactivity

QVQLVESGGGLVQAGGSLRLSCAASGRIFGYNAMGWYRQAPGKERELVASITSAASTYYADSVKGRFTISRDNAKNTVYLQMNSLKPEDTAVYYCAASAYSALFYWYDYWGQGTQVTVSW
polyreactivity (PSR sort gate): high polyreactivity

QVQLVESGGGLVQAGGSLRLSCAASGRTLYRNAMGWYRQAPGKERELVAAIKMRGGSTYADSVKGRFTISRDNAKNTVYLQMNSLKPEDTAVYYCAAASRSPYYYWGQGTQVTVSS
polyreactivity (PSR sort gate): high polyreactivity

QVQLVESGGGLVQAGGSLRLSCAASGGIFVLYAMGWYRQAPGKERELVAAIRYGGSSTYYADSVKGRFTISRDYAKNTVYLQMNSLKPEDTAVYYCAAEPYSWDTWVDYDYWGQGTQVTVSS
polyreactivity (PSR sort gate): low polyreactivity

QVKLVESGGGLVQAGGSLRLSCAASGRIFRYYVMGWYRQAPGKERELVAAITSGGSTYYADSVKGRFTISRDNAKNTVYLQMNSLKPEDTAVYYCNVVGRYGSFRSAEMNYWGQGTQVTVSS
polyreactivity (PSR sort gate): high polyreactivity

HVQLVESGGGLVQAGGSLRLSCAASGRTLRRNAMGWYRQAPGKERELVAAINYSGANTYYADSVKGRFTISRDNAKNTVYLQMNSLKPEDTAVYYCAAASTSYRGISGGDYWGQGTQVTVSS
polyreactivity (PSR sort gate): high polyreactivity

QVQLVESGGGLVQAGGSLRLSCAASGRTSLRYSMGWYRQAPGKERELVAAITSSGATTYYADSVKGRFTISRDNAKNTVYLQMNSLKPEDTAVYYCAAVYSAKRGSGGFGYWGQGTQVTVSS
polyreactivity (PSR sort gate): high polyreactivity

QVQLVESGGGLVQAGGSLRLSCAASGRTFGRYAMGWYRQAPGKERELVAGISGSVGITYYADSVKGRFTISRDNAKNTVYLQMNSLKPEDTAVYYCAVVARAGHKYDYWGQGTQVTVSS
polyreactivity (PSR sort gate): low polyreactivity

QVQLVESGGGLVQAGGSLRLSCAASGRTFIIYTMGWYRQAPGKEREFVAAITRSGGGTYYADSVKGRFTISRDNAKNTVYLQMNSLKPEDTAVYYCAADRFYDQAYDYWGQGTQVTVSS
polyreactivity (PSR sort gate): low polyreactivity

QVQLVESGGSLVQAGGSLRLSCAASGRIFYYNAMGWYRQAPGKERELVAAISWSGGSTYYADSVKGRFTISRDNAKNTVYLQMNSLKPEDTAVYYCAVDVYGYTPRPTREPLIYEYWGQGTQVTVSS
polyreactivity (PSR sort gate): low polyreactivity

QVQLVESGGGLVQAGGSLRLSCAASGLTFSKYVMGWYIQAPGKERELVAAITWSGGRTYYADSVKGRFTISRDNAKNTVYLQMNSLKPEDTAVYYCNRKLKGLGYEYDYWGQGTQVTVSS
polyreactivity (PSR sort gate): high polyreactivity
